Sequences and labels used below:
B1: 212Q→A (protein)
chain: ITSGNKSTNVTVHKSEAGTSSVFYYKTGDMLPEDTTHVRWFLNINNEKSYVSKDITIKDQIAGGQQLDLSTLNINVTGTHSNYYSGQSAITDFEKAFPGSKITVDNTKNTIDVTIPQGYGSYNSFSINYKTKITNEQQKEFVNNSQAWYQEHGKEEVNGKSFNHTVHN
B2: 189R→A (protein)
chain: ITSGNKSTNVTVHKSEAGTSSVFYYKTGDMLPEDTTHVAWFLNINNEKSYVSKDITIKDQIQGGQQLDLSTLNINVTGTHSNYYSGQSAITDFEKAFPGSKITVDNTKNTIDVTIPQGYGSYNSFSINYKTKITNEQQKEFVNNSQAWYQEHGKEEVNGKSFNHTVHN
B3: 193N→K (protein)
chain: ITSGNKSTNVTVHKSEAGTSSVFYYKTGDMLPEDTTHVRWFLKINNEKSYVSKDITIKDQIQGGQQLDLSTLNINVTGTHSNYYSGQSAITDFEKAFPGSKITVDNTKNTIDVTIPQGYGSYNSFSINYKTKITNEQQKEFVNNSQAWYQEHGKEEVNGKSFNHTVHN
B4: 232N→A (protein)
chain: ITSGNKSTNVTVHKSEAGTSSVFYYKTGDMLPEDTTHVRWFLNINNEKSYVSKDITIKDQIQGGQQLDLSTLNINVTGTHSAYYSGQSAITDFEKAFPGSKITVDNTKNTIDVTIPQGYGSYNSFSINYKTKITNEQQKEFVNNSQAWYQEHGKEEVNGKSFNHTVHN
B5: 278N→K (protein)
chain: ITSGNKSTNVTVHKSEAGTSSVFYYKTGDMLPEDTTHVRWFLNINNEKSYVSKDITIKDQIQGGQQLDLSTLNINVTGTHSNYYSGQSAITDFEKAFPGSKITVDNTKNTIDVTIPQGYGSYNSFSIKYKTKITNEQQKEFVNNSQAWYQEHGKEEVNGKSFNHTVHN
B6: 221T→K (protein)
chain: ITSGNKSTNVTVHKSEAGTSSVFYYKTGDMLPEDTTHVRWFLNINNEKSYVSKDITIKDQIQGGQQLDLSKLNINVTGTHSNYYSGQSAITDFEKAFPGSKITVDNTKNTIDVTIPQGYGSYNSFSINYKTKITNEQQKEFVNNSQAWYQEHGKEEVNGKSFNHTVHN
B7: 191F→A (protein)
chain: ITSGNKSTNVTVHKSEAGTSSVFYYKTGDMLPEDTTHVRWALNINNEKSYVSKDITIKDQIQGGQQLDLSTLNINVTGTHSNYYSGQSAITDFEKAFPGSKITVDNTKNTIDVTIPQGYGSYNSFSINYKTKITNEQQKEFVNNSQAWYQEHGKEEVNGKSFNHTVHN
B8: 233Y→A (protein)
chain: ITSGNKSTNVTVHKSEAGTSSVFYYKTGDMLPEDTTHVRWFLNINNEKSYVSKDITIKDQIQGGQQLDLSTLNINVTGTHSNAYSGQSAITDFEKAFPGSKITVDNTKNTIDVTIPQGYGSYNSFSINYKTKITNEQQKEFVNNSQAWYQEHGKEEVNGKSFNHTVHN
B9: 223N→K (protein)
chain: ITSGNKSTNVTVHKSEAGTSSVFYYKTGDMLPEDTTHVRWFLNINNEKSYVSKDITIKDQIQGGQQLDLSTLKINVTGTHSNYYSGQSAITDFEKAFPGSKITVDNTKNTIDVTIPQGYGSYNSFSINYKTKITNEQQKEFVNNSQAWYQEHGKEEVNGKSFNHTVHN
B10: 175Y→K (protein)
chain: ITSGNKSTNVTVHKSEAGTSSVFYKKTGDMLPEDTTHVRWFLNINNEKSYVSKDITIKDQIQGGQQLDLSTLNINVTGTHSNYYSGQSAITDFEKAFPGSKITVDNTKNTIDVTIPQGYGSYNSFSINYKTKITNEQQKEFVNNSQAWYQEHGKEEVNGKSFNHTVHN
B11: 225N→K (protein)
chain: ITSGNKSTNVTVHKSEAGTSSVFYYKTGDMLPEDTTHVRWFLNINNEKSYVSKDITIKDQIQGGQQLDLSTLNIKVTGTHSNYYSGQSAITDFEKAFPGSKITVDNTKNTIDVTIPQGYGSYNSFSINYKTKITNEQQKEFVNNSQAWYQEHGKEEVNGKSFNHTVHN

Sequence of Col type II (P02458 182-1241 limits assumed): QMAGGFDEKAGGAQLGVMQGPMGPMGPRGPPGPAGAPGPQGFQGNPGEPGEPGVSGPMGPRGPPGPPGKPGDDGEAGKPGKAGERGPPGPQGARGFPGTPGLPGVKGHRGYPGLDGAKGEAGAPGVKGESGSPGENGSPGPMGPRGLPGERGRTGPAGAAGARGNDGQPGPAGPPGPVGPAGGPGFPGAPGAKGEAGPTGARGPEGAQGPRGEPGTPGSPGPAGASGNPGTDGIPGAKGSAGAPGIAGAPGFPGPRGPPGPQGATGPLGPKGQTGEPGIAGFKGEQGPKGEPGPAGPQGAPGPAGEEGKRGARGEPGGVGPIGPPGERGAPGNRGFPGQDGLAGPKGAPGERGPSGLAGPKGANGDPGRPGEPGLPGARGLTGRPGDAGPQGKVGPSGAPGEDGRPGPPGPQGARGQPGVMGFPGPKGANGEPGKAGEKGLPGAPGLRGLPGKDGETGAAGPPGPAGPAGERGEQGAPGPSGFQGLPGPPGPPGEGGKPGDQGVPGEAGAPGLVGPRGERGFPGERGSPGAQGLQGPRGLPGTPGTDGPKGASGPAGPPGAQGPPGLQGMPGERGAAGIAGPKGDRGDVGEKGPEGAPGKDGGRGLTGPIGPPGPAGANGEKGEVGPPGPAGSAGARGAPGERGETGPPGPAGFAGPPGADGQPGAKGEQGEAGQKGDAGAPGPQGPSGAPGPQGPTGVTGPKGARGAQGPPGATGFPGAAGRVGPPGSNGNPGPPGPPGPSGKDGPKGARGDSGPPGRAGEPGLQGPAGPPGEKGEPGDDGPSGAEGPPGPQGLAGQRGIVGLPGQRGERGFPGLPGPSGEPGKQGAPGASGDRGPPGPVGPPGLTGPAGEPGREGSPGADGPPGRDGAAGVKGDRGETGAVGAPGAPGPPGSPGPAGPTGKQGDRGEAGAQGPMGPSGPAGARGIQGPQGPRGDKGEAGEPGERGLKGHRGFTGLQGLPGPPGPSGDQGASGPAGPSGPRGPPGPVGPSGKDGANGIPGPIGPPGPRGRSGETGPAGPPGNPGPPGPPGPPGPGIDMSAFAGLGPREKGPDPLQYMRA
Sequence of type II Col (collagen type II) (P02459 182-1241): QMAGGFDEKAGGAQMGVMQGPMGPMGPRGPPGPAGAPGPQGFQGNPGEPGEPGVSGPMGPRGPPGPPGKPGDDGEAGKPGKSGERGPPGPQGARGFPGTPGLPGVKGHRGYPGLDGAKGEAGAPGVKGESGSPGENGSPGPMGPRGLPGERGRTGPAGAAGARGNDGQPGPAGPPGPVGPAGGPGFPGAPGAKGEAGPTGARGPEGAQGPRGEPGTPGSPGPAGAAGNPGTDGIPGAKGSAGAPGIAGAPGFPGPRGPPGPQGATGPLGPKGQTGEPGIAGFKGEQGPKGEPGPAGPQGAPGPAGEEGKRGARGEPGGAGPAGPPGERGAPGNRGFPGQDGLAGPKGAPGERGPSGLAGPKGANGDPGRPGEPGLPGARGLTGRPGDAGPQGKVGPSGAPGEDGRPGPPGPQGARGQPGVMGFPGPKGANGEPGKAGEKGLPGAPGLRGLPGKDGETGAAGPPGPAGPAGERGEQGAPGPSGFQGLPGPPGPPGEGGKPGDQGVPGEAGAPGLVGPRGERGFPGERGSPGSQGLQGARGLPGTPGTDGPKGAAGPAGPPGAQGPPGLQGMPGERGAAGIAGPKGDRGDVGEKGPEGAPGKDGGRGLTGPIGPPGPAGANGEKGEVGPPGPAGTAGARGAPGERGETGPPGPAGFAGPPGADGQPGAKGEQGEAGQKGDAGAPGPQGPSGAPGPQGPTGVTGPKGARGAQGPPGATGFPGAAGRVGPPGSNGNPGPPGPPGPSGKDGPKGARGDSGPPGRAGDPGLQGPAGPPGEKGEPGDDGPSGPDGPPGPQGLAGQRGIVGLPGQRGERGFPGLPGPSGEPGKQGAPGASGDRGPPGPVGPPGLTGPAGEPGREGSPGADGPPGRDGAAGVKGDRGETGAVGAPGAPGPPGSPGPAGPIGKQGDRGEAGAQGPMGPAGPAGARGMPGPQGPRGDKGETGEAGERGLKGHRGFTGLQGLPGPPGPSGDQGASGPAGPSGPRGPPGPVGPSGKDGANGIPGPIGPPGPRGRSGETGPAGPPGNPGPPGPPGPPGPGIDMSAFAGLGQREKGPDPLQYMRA

One test deals with Col type II (Homo sapiens, UniProt P02458). Kind of test: Biosensor analysis of CBD(151-318) and single-site mutants binding to Col type II. To be noted: approximate binding ratio. The source says:
Mutational analysis was used to evaluate the putative binding site defined by the docking search. […] The surface area covered by the docked Col is about 1630 Å^2, which is 22% of the total solvent-accessible surface of CBD(172-318). […] Nine of these residues were mutated as well as two additional residues outside the putative binding region. The single-site lysine and alanine mutations were designed to disrupt the surface of the putative Col binding groove of wild type CBD(15 1-318). […] The MSCRAMM recognizes generic triple-helical structures (Speziale et al., 1986; Sakakibara et al., 1973; Heidemann and Roth, 1982), therefore, changes in the low-affinity dissociation constants were used to evaluate alterations in the binding of the mutant proteins (House-Pompeo et al., 1994).
For the molecule B1, the BR is 10.

Turning to B2, the BR is recorded as greater than 13.

As for B3, the BR was found to be 12.

For B4, the BR was found to be 12.

On to B5, for which the BR is reported as 9.

Turning to B6, the BR was found to be 9.

B7: the BR was determined as 10.

Consider B8, for which the BR was determined as 11.

For the molecule B9, the BR came out at 10.

Consider B10, for which the BR was greater than 20.

Consider B11, for which the BR was found to be 10.

Staying with this test, now noted: in words.
B1: the “Col-binding activity / affinity for Col compared with wild type CBD(151-318)” value was “did not differ significantly from that of wild type CBD(151-318)”.

Regarding B4, the “Col-binding activity / affinity for Col compared with wild type CBD(151-318)” value is listed as “did not differ significantly from that of wild type CBD(151-318)”.

As to B6, the “Col-binding activity / affinity for Col compared with wild type CBD(151-318)” value is reported as “did not differ significantly from that of wild type CBD(151-318)”.

On to B11, for which the “Col-binding activity / affinity for Col compared with wild type CBD(151-318)” value was “did not differ significantly from that of wild type CBD(151-318)”.

Another test has as its system S. aureus strain Phillips. Kind of test: Mouse sepsis model, active immunization, intravenous challenge with S. aureus expressing CBP. To be noted: 100μg/mouse on days -31, -18, -7; 2.8×10^7 cfu/mouse i.v. day 0; end day 14. In kind it is in vivo, mice. The source says:
Gram-positive bacteria related sepsis is on the increase. In fact between one-third and one-half of all cases of sepsis are caused by gram-positive bacteria, particularly S. aureus and S. epidermidis. In the United States, it can be estimated that over 200,000 patients will develop gram-positive related sepsis this year. […] Mice were immunized subcutaneously with either M55 or a control antigen (bovine serum albumin) and then challenged intravenously with S. aureus. Eighty-three percent (35/42) of the mice immunized with M55 survived compared to only 27% of the BSA immunized mice (12/45). This is a compilation of 3 separate studies.
Day -31: 100μg/mouse of a CBP Epitope (i.e. M17, M31, or M55) or BSA emulsified with Freund's Complete adjuvant (Difco Laboratories) as a control.
Day -18: 100μg/mouse of a CBP Epitope (ie. M17, M31, or M55) or BSA dissolved in sterile phosphate buffered saline (PBS)
Day -7: 100μg/mouse of a CBP Epitope (i.e. M17, M31, or M55) or BSA dissolved in PBS
Day 0: inoculate intravenously S. aureus strain Phillips (which expresses CBP) (Dose: 2.8×10^7 cfu/mouse)
Day 14: end of study; all surviving mice were euthanized.
For the molecule “M17: recombinant S. aureus Col-binding MSCRAMM derivative, amino acids 151-297 of full length CBP (SEQ ID NO:2)”, the mice died/total was 10/15.

For “M31: recombinant S. aureus Col-binding MSCRAMM derivative, amino acids 61-343 of full length CBP (SEQ ID NO:4)”, the mice died/total is 12/14.

The same test, now with this note: in words.
“full-length sequence: previously-identified full-length S. aureus CBP [reference compound]”: the protection against sepsis entry was “does not confer protection against sepsis”.

Another test addresses type II Col (collagen type II). Kind of test: biosensor analysis, equilibrium response; protein passed over covalently immobilized type II Col.
Conditions: not given
For the molecule “CBD(151-318) 175Y→K (from UniProt Q53654 151-318)”, the BR (approximate binding ratio) is greater than 20.

For “CBD(151-318) 189R→A (from UniProt Q53654 151-318)”, the BR (approximate binding ratio) is greater than 13.

In the case of “CBD(151-318) 191F→A (from UniProt Q53654 151-318)”, the BR (approximate binding ratio) came out at 10.

For the molecule “CBD(151-318) 193N→K (from UniProt Q53654 151-318)”, the BR (approximate binding ratio) turned out to be 12.

For “CBD(151-318) 212Q→A (from UniProt Q53654 151-318)”, the BR (approximate binding ratio) was 10.

For the molecule “CBD(151-318) 221T→K (from UniProt Q53654 151-318)”, the BR (approximate binding ratio) amounted to 9.

With “CBD(151-318) 223N→K (from UniProt Q53654 151-318)”, the BR (approximate binding ratio) came out at 10.

As for “CBD(151-318) 225N→K (from UniProt Q53654 151-318)”, the BR (approximate binding ratio) came out at 10.

“CBD(151-318) 232N→A (from UniProt Q53654 151-318)”: the BR (approximate binding ratio) is 12.

Take “CBD(151-318) 233Y→A (from UniProt Q53654 151-318)”: the BR (approximate binding ratio) worked out at 11.

For “CBD(151-318) 278N→K (from UniProt Q53654 151-318)”, the BR (approximate binding ratio) was found to be 9.

Regarding “CBD(151-318), recombinant Col-binding domain of the S. aureus CBP (wild type) (from UniProt Q53654 151-318)”, the BR (approximate binding ratio) turned out to be 10.

The record behind these values is patent US20020102262A1, “Collagen binding protein compositions and methods of use” (priority 1996, published 2002).
